Test results as given in US20240174764A1 (Memorial Sloan Kettering, published 2024).

Columns and labels:
[1] = target: T1, BTM protein (synthetic fusion protein of the highly conserved extracellular portion of MUC16^c57-114 fused to … (human, UniProt Q8WXI7 14394-14451)); experiment: SPR, BiaCore X100, His-tagged EXT170-8 BiTEDs immobilised on an NTA sensor chip, MUC16 BTM protein injected at 35.625 to 570 nM, 1:1 binding model [d]
T1 construct: domain: highly conserved extracellular portion of MUC16^c57-114; also called MUC16 BTM protein; Muc16 BTM protein; not shown: human Fc (pFUSE backbone)
T1 sequence: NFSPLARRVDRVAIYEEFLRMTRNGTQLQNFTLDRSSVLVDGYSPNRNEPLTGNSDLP
Protocol: (§1) Kinetic Analysis of BiTEDs binding to MUC16^ecto. The kinetic analysis of EXT170-8 BiTEDs and Muc16 BTM protein (55mer highly conserved ectodomain region of MUC16) was performed on a BiaCore X100 instrument loaded with an NTA sensor chip. EXT170-8 BiTED comprises the amino acid of SEQ ID NO: 89 and the leader sequence of SEQ ID NO: 93.
(§2) The raw data was analyzed using the kinetic model 1:1 binding by Biacore X100 evaluation software.

[2] = target: T1, BTM protein (synthetic fusion protein …); experiment: SPR (BiaCore X100), His-tagged BiTED on NTA chip, BTM as analyte, 1:1 model
Protocol: as §1, §2
MUC16^ecto-BiTEDs were purified and confirmed by SDS-page (FIG. 1(c)). To determine the binding affinity of BiTEDs to MUC16^ecto, a previously validated BTM protein (a synthetic fusion protein consisting of the highly conserved extracellular portion of MUC16^c57-114 fused to a human Fc backbone pFUSE) was used, and kinetic analysis was performed using surface plasmon resonance.

B1: EXT170-8 BiTED (MUC16^ecto-specific Bispecific T-cell engaging diabody, Clone 8 (LH)/anti-CD3 bispecific antibody) (bispecific antibody)
chain: DIQLTQSPSAVSASVGDRVTITCRASQDVSKWLAWYQQKPGKAPRLLISAASGLQSWVPSRFSGSGSGTEFTLSISSLQPEDFATYYCQQANSFPWTFGQGTKVEIKRSRGGGGSGGGGSGGGGSLEMAQVQLQQWGAGLLKPSETLSLTCAVYGGSFSGYYWSWIRQPPGKGLEWIGEINHSGSTNYNPSLKSRVTISVDTSKNQFSLKLSSVTAADTAVYYCARQSYITDSWGQGTLVTVSSTSGGGGSDVQLVQSGAEVKKPGASVKVSCKASGYTFTRYTMHWVRQAPGQGLEWIGYINPSRGYTNYADSVKGRFTITTDKSTSTAYMELSSLRSEDTATYYCARYYDDHYCLDYWGQGTTVTVSSGEGTSTGSGGSGGSGGADDIVLTQSPATLSLSPGERATLSCRASQSVSYMNWYQQKPGKAPKRWIYDTSKVASGVPARFSGSGSGTDYSLTINSLEAEDAATYYCQQWSSNPLTFGGGTKVEIKHHHHHH
notes: The molecule was His-tagged in SPR and biotinylated in ELISA; also called MUC16^ecto-BiTEDs; EXT170-8 BiTEDs
koff [1]: 0.0157 s⁻¹ | kon [1]: 224000 M⁻¹ s⁻¹ | Kd [2]: 69.9 nM
